According to US12404345B2, “Humanized antibodies against iRHOM2” (SCIRHOM GMBH, priority 2021, dated 2025):
Residue numbers refer to the chain shown, from its start.

B1: 23-B-04: humanized antibody binding human iRhom2; HCVD SEQ ID NO 25, LCVD SEQ ID NO 29 (antibody, V domains shown)
VH: QVTLRESGPALVKPTQTLTLTCTFSGFSLSTFGMGVGWIRQPPGKALEWLAHIWWDDEKYYNSALKSRLTISKDTSKNQVVLTITNMDPVDTATYYCARISNYGSNYWYFNVWGQGTLVTVSS
VL: AIQLTQSPSSLSASVGDRVTITCRASSSVSYMYWYQQKPGKAPKVLIYDTSNLASGVPSRFSGSGSGTDYTLTISSLQPEDFATYYCQQWNAYPLTFGQGTKLEIK
modifications: antibody sequences
B2: 42-B-02: humanized antibody binding human iRhom2; HCVD SEQ ID NO 33, LCVD SEQ ID NO 37 (antibody, V domains shown)
VH: B1 VH with M34R, S101Q, N111D
VL: B1 VL with S28R, V29I, Y33F, A92S
modifications: antibody sequences
B3: 42-B-04: humanized antibody binding human iRhom2; HCVD SEQ ID NO 41, LCVD SEQ ID NO 45 (antibody, V domains shown)
VH: B1 VH with M34R, S101Q, N111D
VL: B1 VL with S28R, V29I, Y33F
modifications: antibody sequences
B4: 16-B-03: humanized antibody binding human iRhom2; HCVD SEQ ID NO 1, LCVD SEQ ID NO 5 (antibody, V domains shown)
VH: QVTLRESGPALVKPTQTLTLTCTFSGFSLSTFALGVGWIRQPPGKALEWLAHIWWDDDKYYNPALKSRLTISKDTSKNQVVLTITNMDPVDTATYYCARITTYYYGMDYWGQGTLVTVSS
VL: EIVMTQSPDFQSVTPKEKVTITCRASQSIGNHLHWYQQKPDASPKLLIKYASQSISGVPSRFSGSGSGTDFTLTINSLEAEDAATYFCQQSYQWPLTFGQGTKLEIK
modifications: antibody sequences
B5: 16-B-05: humanized antibody binding human iRhom2; HCVD SEQ ID NO 9, LCVD SEQ ID NO 13 (antibody, V domains shown)
VH: B4 VH with D57E
VL: B4 VL with Q93N
modifications: antibody sequences
B6: 16-B-07: humanized antibody binding human iRhom2; HCVD SEQ ID NO 17, LCVD SEQ ID NO 21 (antibody, V domains shown)
VH: B4 VH with D57E
VL: B4 VL
modifications: antibody sequences

Each molecule was assayed on dog iRhom1 (assay: FACS binding on MEF-DKO-Dog-iR1-FL-WT-T7 cells). Settings: antibody at 3 μg/ml.
Text: (§1) Next, iRhom1/2−/− DKO MEFs stably expressing a tagged form of rhesus monkey, cynomolgus monkey, dog or rabbit iRhom2 were generated in order to determine cross-reactivity of the antibodies of the invention with the respective orthologue of iRhom2. iRhom1/2−/− DKO MEFs stably expressing a tagged form of rhesus monkey, cynomolgus monkey, dog or rabbit iRhom1 were generated to confirm specificity for iRhom2 versus iRhom1 of these species.
(§2) In brief, on day 1, Phoenix-ECO cells (American Type Culture Collection, USA) were seeded on 6-well tissue culture plates (Greiner, Germany) in standard growth medium at 8×10^5 cells per well and kept overnight at 37° C., 5% CO2. On day 2, the medium was replaced by fresh medium supplemented with chloroquine (Sigma-Aldrich, USA) at a final concentration of 25 μM. Applying the calcium phosphate method, cells were transfected with 2 μg/ml of pMSCV (Clontech, USA) empty vector, pMSCV-rhesus-iR2-FL-WT-T7 encoding rhesus monkey iRhom2 full length wild type C-terminally tagged with 3 consecutive copies of the T7 epitope, pMSCV-cyno-iR2-FL-WT-T7 encoding cynomolgus monkey iRhom2 full length wild type C-terminally tagged with 3 consecutive copies of the T7 epitope, pMSCV-dog-iR2-FL-WT-T7 encoding dog iRhom2 full length wild type C-terminally tagged with 3 consecutive copies of the T7 epitope or pMSCV-rabbit-iR2-FL-WT-T7 encoding rabbit iRhom2 full length wild type C-terminally tagged with 3 consecutive copies of the T7 epitope, respectively, and were kept at 37° C., 5% CO2. After 7 hours, the transfections were stopped by replacing cell supernatants with standard growth medium lacking chloroquine, and cells were incubated at 37° C., 5% CO2 to allow virus production overnight. In parallel, immortalized iRhom1/2−/− DKO MEFs as target cells for retroviral infection were seeded on 6-well tissue culture plates (Greiner, Germany) in standard growth medium at 1×10^5 cells per well and were also kept overnight at 37° C., 5% CO2. On day 3, the supernatants of Phoenix-ECO cells releasing pMSCV, pMSCV-rhesus-iR2-FL-WT-T7, pMSCV-cyno-iR2-FL-WT-T7, pMSCV-dog-iR2-FL-WT-T7 or pMSCV-rabbit-iR2-FL-WT-T7 ecotrophic virus, respectively were collected, filtered with 0.45 μm CA filters, and supplemented with 4 μg/ml of polybrene (Sigma-Aldrich, USA). Upon removal of medium from the immortalized iRhom1/2−/− DKO MEFs, the virus containing supernatants were added to the target cells for 4 hours at 37° C., 5% CO2 for first infection. Simultaneously, Phoenix-ECO cells were re-incubated with fresh medium, which, after another 4 hours, was filtered and used for the second infection of the respective target cell populations, again in the presence of 4 μg/ml of polybrene. Likewise, a third, but overnight infection cycle was performed. On day 4, virus containing cell supernatants were replaced by fresh standard growth medium. From day 5 onwards, cells were grown in the presence of 2 mg/ml of geneticin (G418, Thermo Fisher Scientific, USA) for the selection of immortalized MEF-DKO-EV control cells stably infected with pMSCV empty vector, pMSCV-rhesus-iR2-FL-WT-T7 cells stably expressing rhesus monkey iRhom2 full length wild type C-terminally tagged with 3 consecutive copies of the T7 epitope, pMSCV-cyno-iR2-FL-WT-T7 cells stably expressing cynomolgus monkey iRhom2 full length wild type C-terminally tagged with 3 consecutive copies of the T7 epitope, pMSCV-dog-iR2-FL-WT-T7 cells stably expressing dog iRhom2 full length wild type C-terminally tagged with 3 consecutive copies of the T7 epitope or pMSCV-rabbit-iR2-FL-WT-T7 cells stably expressing rabbit iRhom2 full length wild type C-terminally tagged with 3 consecutive copies of the T7 epitope, respectively. Upon propagation, cells were stocked for future usage. In parallel, iRhom1/2−/− DKO MEFs stably expressing a tagged form of rhesus monkey, cynomolgus monkey, dog or rabbit iRhom1 were generated in an analogous manner. […]

Molecule	binding to dog iRhom1 on MEF-DKO-Dog-iR1-FL-WT-T7 cells
B1	do not recognize dog iRhom1
B2	do not recognize dog iRhom1
B3	do not recognize dog iRhom1
B4	no significant binding
B5	do not recognize dog iRhom1
B6	do not recognize dog iRhom1

Each molecule was assayed on cynomolgus monkey iRhom2 (assay: FACS cross-reactivity on MEF-DKO-Cyno-iR2-FL-WT-T7 cells). Settings: antibody at 3 μg/ml.
Assay type: binding
Text: as §1, §2

Molecule	binding to cynomolgus monkey iRhom2 on MEF-DKO-Cyno-iR2-FL-WT-T7 cells
B1	recognize cynomolgus monkey iRhom2
B2	recognize cynomolgus monkey iRhom2
B3	recognize cynomolgus monkey iRhom2
B4	Strong binding
B5	recognize cynomolgus monkey iRhom2
B6	recognize cynomolgus monkey iRhom2
